From patent US8097425 come the findings set out here.

In one experiment the target is hybridoma 2.03. Briefly: competition ELISA; signal of 2.03 on plate-bound Pep2-0 (competitor) with this free peptide; low = inhibited. For orientation: An ELISA detects its analyte on a solid surface through an enzyme-linked reagent.
The next experiment concerns the target hybridoma 2.11. Briefly: competition ELISA; signal of 2.11 on plate-bound Pep2-0 (competitor) with this free peptide; low = inhibited.

For Ac-HSLFHPEDTG-biotin [Pep1-1], the Maximum Reactivity in the experiment with hybridoma 2.03 is 0.382; in the experiment with hybridoma 2.11, 1.48.
Take Ac-SLFHPEDTGQ-biotin [Pep1-2]: the Maximum Reactivity came out at 0.329 in the experiment with hybridoma 2.03 and 1.49 in the experiment with hybridoma 2.11.
